Measured values reported in paper PMC3646895, “The Carboxy-Terminal αN Helix of the Archaeal XerA Tyrosine Recombinase Is a Molecular Switch to Control Site-Specific Recombination” (PLoS ONE, 2013).
Several values for one entry are separate records, joined by “and”; a condition that tells them apart may be missing. Identical values can stand only once. Values belong to the molecule of their own block, whether it stands above or below them.

What was measured:
[1] = target: XerA recombinase from Pyrococcus abyssi, C-terminal His-tagged (Pyrococcus abyssi) (UniProt Q9V1P5); test: AUC; sedimentation velocity, 25°C, 0.3 mM (11.8 mg.ml^-1) XerA in 20 mM Tris-HCl pH 7.5, 1 M NaCl, 42,000 rpm; c(s) distribution and self-association model with fitted non-ideality; dimer to monomers
[2] = target: the molecule itself; test: SDS-PAGE of covalent protein-DNA complexes (assemblies resistant to thermal denaturation); 40 pmol XerA protein with 25 nM 5' end-labeled left half recombination site, 30 mM Tris pH 7.5, 50 mM NaCl, 2 h at 65°C, quenched in Laemmli buffer, 10 min at 100°C, 12% SDS-PAGE, phosphorimaging

- Kd [1]: > 100 µM
- stoichiometry N [1]: 2 and 4
Molecule: XerA recombinase from Pyrococcus abyssi, C-terminal His-tagged (from UniProt Q9V1P5 1-286) (enzyme)

B1: XerA-ΔC, XerA deleted for the last 13 amino-acids (αN helix), N-terminal His-tagged (domain or fragment, Pyrococcus abyssi, UniProt Q9V1P5 1-273, looked up)
chain: MEEREERVRDDTIEEFATYLELEGKSRNTVRMYTYYISKFFEEGHSPTARDALRFLAKLKRKGYSTRSLNLVIQALKAYFKFEGLDSEAEKLKTPKMPKTLPKSLTEEEVRRIINAAETLRDRLILLLLYGAGLRVSELCNLRVEDVNFEYGVIVVRGGKGGKDRVVPISESLLSEIKRYLESRNDDSPYLFVEMKRKRKDKLSPKTVWRLVKKYGRKAGVELTPHQLRHSFATHMLERGIDIRIIQELLGHSNLSTTQIYTKVSTKHLKEAV
notes: XerA tyrosine recombinase, Pyrococcus abyssi, deleted for the last 13 amino-acids corresponding to the αN helix alone; In the assay it is covalently linked to the cleaved DNA half site; also called ΔαN helix mutant; source: recombinant, obtained by PCR, expressed and purified following the procedure described for the wild-type enzyme
- fold reduction of the high molecular weight complexes against XerA [2]: 4 fold
